Assay results from the supplement of paper PMC10126150.
± gives the standard deviation of the averaged measurements.

Each sequence was assayed on ATP (assay: switch fluorescence ratio, 500 uM ATP over buffer (Cy3 cluster intensity, sum of 5 cycles each) (fold (ratio)); higher = stronger signal-on switching upon ATP binding; sequences stand for … in TCGTCGGCAGCGTCAGATGTGTATAAGAGACAGTTTTTTTTTTTTTTTTTTTTTTTTT…TC). Details: aptamer strand: ATP DNA aptamer (quencher-CACCTGGGGGAGTATTGCGGAGGAAGG + anchor), 100 nM annealed; ATP concentration: 500 uM.
Summary of the method: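 Clusters with intensities outside 100-1000 RFU were excluded. The remaining Cy3-labelled switching-strand clusters on a modified Illumina MiSeq flow-cell had been annealed to 100 nM quencher-labelled ATP aptamer and imaged in selection buffer, then after 15 min with 500 uM ATP at 22 °C, for five cycles separated by NaOH stripping and re-annealing. The fluorescence ratio, averaged per switch-domain sequence, is each cluster's summed target-cycle Cy3 intensity over its summed buffer-cycle Cy3 intensity.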
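Note: ATP exposure 15 min at 22 °C before imaging.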

| Sequence | switch fluorescence ratio |
| --- | --- |
| GCCTGTAGGA | 1.01 ± 0.015 |
| GCCTGTATAG | 0.9958 ± 0.0052 |
| GCCTGTTTGT | 0.983 ± 0.02 |
| GCCTTAGGGT | 1.015 ± 0.0029 |
| GCCTTAGTGA | 0.9959 ± 0.0046 |
| GCCTTATATG | 0.968 ± 0.03 |
| GCCTTCCTTT | 2.15 ± 0.72 |
| GCCTTGACAG | 0.989 ± 0.025 |
| GCCTTGGACG | 1.041 ± 0.0076 |
| GCCTTGGGGG | 1 ± 0.028 |
| GCCTTTCAGA | 1.005 ± 0.0053 |
| GCCTTTTGCG | 1.01 ± 0.018 |
| GCGAAGGCGT | 0.9709 ± 0.0033 |
| GCGAAGTGCG | 0.979 ± 0.015 |
| GCGAATCGGT | 1.01 ± 0.022 |
| GCGAATGCTG | 1.006 ± 0.0089 |
| GCGAATTAGA | 1 ± 0.034 |
| GCGAATTAGG | 0.9719 ± 0.0032 |
| GCGAATTTTG | 0.9994 ± 0.0081 |
| GCGACCCTT | 1.12 ± 0.037 |
| GCGACGAAGG | 1.02 ± 0.012 |
| GCGACGGGGA | 1.08 ± 0.021 |
| GCGAGAATAT | 1.03 ± 0.043 |
| GCGAGAGGAT | 0.985 ± 0.028 |
| GCGAGATCTT | 0.968 ± 0.015 |

| Sequence | switch fluorescence ratio |
| --- | --- |
| GCGAGCGATG | 0.9988 ± 0.0062 |
| GCGAGCGCTG | 1.02 ± 0.032 |
| GCGAGGCCAA | 1.28 ± 0.054 |
| GCGAGGGGTG | 1.02 ± 0.048 |
| GCGAGGTCGA | 0.991 ± 0.038 |
| GCGATAGTGG | 0.974 ± 0.011 |
| GCGATATGTT | 1.03 ± 0.043 |
| GCGATCAGCT | 1.034 ± 0.0022 |
| GCGATGAGAG | 1.03 ± 0.026 |
| GCGATGGGGC | 1.04 ± 0.039 |
| GCGATGTCT | 0.9976 ± 0.0065 |
| GCGATTAAAT | 1.018 ± 0.0019 |
| GCGATTGATG | 1.02 ± 0.026 |
| GCGATTGTGT | 1.002 ± 0.0055 |
| GCGATTTCGG | 0.985 ± 0.023 |
| GCGCACCACG | 1.06 ± 0.029 |
| GCGCATGAAG | 0.983 ± 0.013 |
| GCGCATTTAG | 1.15 ± 0.066 |
| GCGCCCAGTT | 1.003 ± 0.0029 |
| GCGCCCATGA | 0.982 ± 0.043 |
| GCGCCGTGGC | 0.99035 ± 0.00081 |
| GCGCCTTAAA | 0.967 ± 0.041 |
| GCGCTAGATG | 1.008 ± 0.0093 |
| GCGCTAGTTT | 1 ± 0.016 |
| GCGCTCGGCA | 1.019 ± 0.00084 |

| Sequence | switch fluorescence ratio |
| --- | --- |
| GCGCTGGGTG | 1.11 ± 0.16 |
| GCGCTGGTTT | 0.99 ± 0.034 |
| GCGCTTACTA | 1.31 ± 0.079 |
| GCGGAACGGT | 1.03 ± 0.034 |
| GCGGAAGAGC | 1.06 ± 0.032 |
| GCGGAAGGCG | 1 ± 0.018 |
| GCGGAAGGGT | 1 ± 0.04 |
| GCGGACAGTT | 0.9675 ± 0.0086 |
| GCGGACGGAC | 1.08 ± 0.061 |
| GCGGCGGGGA | 1.01 ± 0.039 |
| GCGGCGTGTC | 1.028 ± 0.0083 |
| GCGGCTATGG | 1.01 ± 0.019 |
| GCGGCTGGGA | 1.047 ± 0.0092 |
| GCGGCTGGTT | 0.981 ± 0.05 |
| GCGGCTTGGG | 1.03 ± 0.055 |
| GCGGGAAAGT | 0.9568 ± 0.009 |
| GCGGGACCCG | 1.01 ± 0.016 |
| GCGGGAGAGG | 1.02 ± 0.033 |
| GCGGGAGGAT | 1.031 ± 0.01 |
| GCGGGAGGGA | 1.03 ± 0.015 |
| GCGGGAGGGT | 1.015 ± 0.0081 |
| GCGGGATGGC | 1.007 ± 0.0087 |
| GCGGGATTCG | 0.998 ± 0.059 |
| GCGGGCCTTG | 0.984 ± 0.068 |
| GCGGGCGGGA | 1.031 ± 0.0098 |

| Sequence | switch fluorescence ratio |
| --- | --- |
| GCGGGCGTCG | 0.994 ± 0.048 |
| GCGGGGAACA | 1 ± 0.017 |
| GCGGGGACGT | 1.02 ± 0.027 |
| GCGGGGAGGG | 1.05 ± 0.033 |
| GCGGGGGGCT | 1.03 ± 0.041 |
| GCGGGGGTCA | 0.974 ± 0.05 |
| GCGGGGGTGC | 1.03 ± 0.048 |
| GCGGGGTAGT | 1.008 ± 0.0044 |
| GCGGGGTATC | 1.09 ± 0.18 |
| GCGGGGTGGG | 0.9835 ± 0.0051 |
| GCGGGGTGTT | 1.03 ± 0.013 |
| GCGGGGTTAT | 1.03 ± 0.011 |
| GCGGGTATGG | 1 ± 0.021 |
| GCGGGTCGGA | 1.02 ± 0.039 |
| GCGGGTGAGG | 1.02 ± 0.026 |
| GCGGGTGGAT | 1.01 ± 0.053 |
| GCGGGTGGCT | 1.03 ± 0.019 |
| GCGGGTGGGA | 1.02 ± 0.034 |
| GCGGGTTAAG | 0.9832 ± 0.0023 |
| GCGGGTTTTA | 1.006 ± 0.0083 |
| GCGGTAATTT | 1 ± 0.024 |
| GCGGTACTCT | 2.27 ± 0.41 |
| GCGGTAGAGC | 1.017 ± 0.0099 |
| GCGGTCAGGG | 1.01 ± 0.016 |
| GCGGTCATGG | 0.992 ± 0.046 |
